Experimental findings from patent US20130230554A1 are described below.

This assay has as its target SVGmu, modified Sindbis virus envelope glycoprotein (SEQ ID NO: 11) (Sindbis virus) (UniProt P03316). The experiment in a line: confocal imaging; anti-HA-biotin plus Cy5-streptavidin staining of GFP-vpr-labeled lentiviral particles on coverslips.

With “anti-HA-biotin antibody (Miltenyi Biotec)”, the fraction of GFP-labeled particles stained for SVGmu was > 90%.
